According to PMC2278140, “Regulation of the cd38 promoter in human airway smooth muscle cells by TNF-α and dexamethasone”:

Tests used:
Settings in all cases: protein: commercial; chain copies: 2; label: 32P 5' end; blunt
[1] = molecular target: T1, glucocorticoid receptor (GR) (human, UniProt P04150 1-777); assay: competition; excess unlabeled vs labeled GRE consensus; 20% glycerol, 5 mM MgCl2, 2.5 mM EDTA, 2.5 mM DTT, 250 mM NaCl, 50 mM Tris-HCl pH 7.5, 0.25 mg/ml poly(dI-dC), room temperature 30 min; 0.4 pmol probe in 10 μl, 5 μg extract or 1 μg GR
T1 sequence (P04150 whole entry): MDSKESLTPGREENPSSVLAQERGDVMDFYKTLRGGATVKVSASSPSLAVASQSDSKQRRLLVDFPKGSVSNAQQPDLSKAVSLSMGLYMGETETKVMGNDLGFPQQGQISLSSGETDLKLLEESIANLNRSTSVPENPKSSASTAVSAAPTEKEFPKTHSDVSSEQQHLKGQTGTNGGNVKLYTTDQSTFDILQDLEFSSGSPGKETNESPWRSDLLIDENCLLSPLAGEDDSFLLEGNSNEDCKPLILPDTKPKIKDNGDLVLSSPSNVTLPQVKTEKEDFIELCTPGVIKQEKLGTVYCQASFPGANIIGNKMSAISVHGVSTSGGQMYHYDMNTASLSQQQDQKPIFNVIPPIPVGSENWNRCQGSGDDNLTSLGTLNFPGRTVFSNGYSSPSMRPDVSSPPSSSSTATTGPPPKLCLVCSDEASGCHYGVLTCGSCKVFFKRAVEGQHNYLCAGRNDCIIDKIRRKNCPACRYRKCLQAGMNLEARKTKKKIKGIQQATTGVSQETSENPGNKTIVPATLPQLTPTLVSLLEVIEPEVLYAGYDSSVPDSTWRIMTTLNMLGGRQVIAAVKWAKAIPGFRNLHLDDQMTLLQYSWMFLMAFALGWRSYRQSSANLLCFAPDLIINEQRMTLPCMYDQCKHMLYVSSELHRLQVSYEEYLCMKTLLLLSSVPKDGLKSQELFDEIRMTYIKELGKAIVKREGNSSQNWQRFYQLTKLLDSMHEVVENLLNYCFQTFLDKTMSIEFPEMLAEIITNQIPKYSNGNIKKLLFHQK

[2] = molecular target: T1, glucocorticoid receptor (GR); assay: EMSA; 20% glycerol, 5 mM MgCl2, 2.5 mM EDTA, 2.5 mM DTT, 250 mM NaCl, 50 mM Tris-HCl pH 7.5, 0.25 mg/ml poly(dI-dC), room temperature 30 min; 0.4 pmol probe in 10 μl, 5 μg extract or 1 μg GR
[3] = molecular target: T1, glucocorticoid receptor (GR); assay: competition; excess unlabeled self vs labeled GRE4; 20% glycerol, 5 mM MgCl2, 2.5 mM EDTA, 2.5 mM DTT, 250 mM NaCl, 50 mM Tris-HCl pH 7.5, 0.25 mg/ml poly(dI-dC), room temperature 30 min; 0.4 pmol probe in 10 μl, 5 μg extract or 1 μg GR
[4] = molecular target: T1, glucocorticoid receptor (GR); assay: competition; excess unlabeled self vs labeled GRE3; 20% glycerol, 5 mM MgCl2, 2.5 mM EDTA, 2.5 mM DTT, 250 mM NaCl, 50 mM Tris-HCl pH 7.5, 0.25 mg/ml poly(dI-dC), room temperature 30 min; 0.4 pmol probe in 10 μl, 5 μg extract or 1 μg GR
[5] = molecular target: T1, glucocorticoid receptor (GR); assay: EMSA; anti-GR supershift; 20% glycerol, 5 mM MgCl2, 2.5 mM EDTA, 2.5 mM DTT, 250 mM NaCl, 50 mM Tris-HCl pH 7.5, 0.25 mg/ml poly(dI-dC), room temperature 30 min; 0.4 pmol probe in 10 μl, 5 μg extract or 1 μg GR

B1: GRE2 (dsDNA)
DNA 1: TTCCGAACTTCTGTTCTGTTTCCCTCAA
DNA 2: TTGAGGGAAACAGAACAGAAGTTCGGAA
binding result [1]: no binding

B2: GRE1 (dsDNA)
DNA 1: AATGTCACAGATGTTCTCTTAATAAAGA
DNA 2: TCTTTATTAAGAGAACATCTGTGACATT
binding result [2]: binds

B3: GRE4 (dsDNA)
DNA 1: GCCATTGTAACTGTTCTCCATCCTTATC
DNA 2: GATAAGGATGGAGAACAGTTACAATGGC
binding result [3]: binds

B4: GRE3 (dsDNA)
DNA 1: AAGCACTGCCATGTTCTCACTTATAAGT
DNA 2: ACTTATAAGTGAGAACATGGCAGTGCTT
binding result [4]: binds

B5: GRE consensus (dsDNA)
DNA 1: TAGAGGATCTGTACAGGATGTTCTAGAT
DNA 2: ATCTAGAACATCCTGTACAGATCCTCTA
binding result [5]: binds
